From patent US20160108128A1 (CANCER RESEARCH TECHNOLOGY, published 2016) come the findings set out here.

The target of test [1] is T1, human Jagged 2, full length, on HEK293 cells (human, UniProt Q9Y219 24-1238).
T1 construct: whole, on cells; also called J2; hJ2
The test can be described thus: FACS, 293-JAG2 cells, anti-human-APC. The protocol: FIG. 18. […] Samples were analysed by FACS and the mean fluorescence intensities (MFI) were plotted. […] With the exception of J1-65D variants 13-16, all the remaining antibodies effectively bound the human J1 protein.
(§1) HEK293 cells transfected with human J1, J2 or FLAG-EGFP-tagged DSL-EGF3 constructs, B16F10 cells transfected with human DLL4 or mouse J1, and human cancer cell lines, were stained with either purified anti-J1 antibodies at 10 μg/ml diluted in FACS wash buffer (2% FBS in PBS+0.1% sodium azide) or neat hybridoma supernatants followed by a allophycocyanin (APC)-conjugated secondary antibody at 1:200 dilution: for murine primary antibodies, used goat anti-mouse-APC (eBioscience); for humanised and chimeric antibodies used goat anti-human IgG (H+L) secondary antibody (Jackson ImmunoResearch Laboratories). After washing, samples were fixed with 1% paraformaldehyde (in PBS) and acquired with a FACSCalibur. FACS data were analysed with FlowJo software (TreeStar Inc.).
In general terms: Flow cytometry measures light scatter and fluorescence of single cells or particles in a stream.

Test [2] addresses T2, murine Jagged 1, full length, on B16F10 cells (mouse, UniProt Q9QXX0 34-1218).
T2 construct: whole, on cells; GFP co-expressed; also called mJ1; B16F10-mJAG1
The test is described as follows: FACS, B16F10-mJAG1 cells, anti-human-APC. The protocol: FIG. 19. […] Samples were analysed by FACS and the mean fluorescence intensities (MFI) were plotted.
as §1

Test [3] deals with T3, J1 DSL-EGF3 soluble recombinant protein (human Jagged 1 amino acids 185-335) (human, UniProt P78504 185-335).
T3 construct: biotinylated in the CD46 ELISA; also called J1-DE3; DSL+EGF1-3
The test can be described thus: affinity to the immunogen J1-DE3; method not stated.

Test [4] deals with T4, J1-NE3 (human Jagged 1, entire N-terminus until the third EGF domain) (human, UniProt P78504 32-335, limits assumed).
T4 construct: domain: entire N-terminus until the third EGF domain; eukaryotically expressed soluble form used in SPR
The test is described as follows: SPR (Biacore), mAb immobilised, J1 protein in flow.

For test [5], the target named is T5, J1-NE12 (human Jagged 1, entire N-terminus to EGF12) (human, UniProt P78504 32-703).
T5 construct: domain: entire N-terminus to EGF12; eukaryotically expressed soluble form used in SPR
The test can be described thus: SPR (Biacore), mAb immobilised, J1 protein in flow.

Test [6] addresses T3, J1 DSL-EGF3 soluble recombinant protein …. The test can be described thus: SPR (Biacore), mAb immobilised, J1 protein in flow. (SPR reads the build-up and loss of mass on a sensor chip optically.)
Test [7] deals with T6, human Jagged 1, full length, on cells (human, UniProt P78504 34-1218).
T6 construct: whole, on cells; the cell is named under assay; also called hJ1; J1
The test can be described thus: FACS competition, HEK293-J1 cells, against biotinylated J1-156A 1.0 µg/ml.

Test [8] addresses T6, human Jagged 1, full length, on cells. The test is described as follows: FACS competition, HEK293-J1 cells, against biotinylated J1-187B 1.0 µg/ml.
For test [9] the target is unchanged. The test can be described thus: FACS competition, HEK293-J1 cells, against biotinylated J1-65D 1.0 µg/ml.

T3 sequence (P78504 185-335, form in doubt): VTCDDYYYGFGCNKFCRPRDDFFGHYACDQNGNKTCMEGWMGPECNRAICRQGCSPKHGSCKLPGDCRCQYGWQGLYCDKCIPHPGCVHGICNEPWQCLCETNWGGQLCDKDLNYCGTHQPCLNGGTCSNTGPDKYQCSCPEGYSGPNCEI
T6 sequence (P78504 34-1218): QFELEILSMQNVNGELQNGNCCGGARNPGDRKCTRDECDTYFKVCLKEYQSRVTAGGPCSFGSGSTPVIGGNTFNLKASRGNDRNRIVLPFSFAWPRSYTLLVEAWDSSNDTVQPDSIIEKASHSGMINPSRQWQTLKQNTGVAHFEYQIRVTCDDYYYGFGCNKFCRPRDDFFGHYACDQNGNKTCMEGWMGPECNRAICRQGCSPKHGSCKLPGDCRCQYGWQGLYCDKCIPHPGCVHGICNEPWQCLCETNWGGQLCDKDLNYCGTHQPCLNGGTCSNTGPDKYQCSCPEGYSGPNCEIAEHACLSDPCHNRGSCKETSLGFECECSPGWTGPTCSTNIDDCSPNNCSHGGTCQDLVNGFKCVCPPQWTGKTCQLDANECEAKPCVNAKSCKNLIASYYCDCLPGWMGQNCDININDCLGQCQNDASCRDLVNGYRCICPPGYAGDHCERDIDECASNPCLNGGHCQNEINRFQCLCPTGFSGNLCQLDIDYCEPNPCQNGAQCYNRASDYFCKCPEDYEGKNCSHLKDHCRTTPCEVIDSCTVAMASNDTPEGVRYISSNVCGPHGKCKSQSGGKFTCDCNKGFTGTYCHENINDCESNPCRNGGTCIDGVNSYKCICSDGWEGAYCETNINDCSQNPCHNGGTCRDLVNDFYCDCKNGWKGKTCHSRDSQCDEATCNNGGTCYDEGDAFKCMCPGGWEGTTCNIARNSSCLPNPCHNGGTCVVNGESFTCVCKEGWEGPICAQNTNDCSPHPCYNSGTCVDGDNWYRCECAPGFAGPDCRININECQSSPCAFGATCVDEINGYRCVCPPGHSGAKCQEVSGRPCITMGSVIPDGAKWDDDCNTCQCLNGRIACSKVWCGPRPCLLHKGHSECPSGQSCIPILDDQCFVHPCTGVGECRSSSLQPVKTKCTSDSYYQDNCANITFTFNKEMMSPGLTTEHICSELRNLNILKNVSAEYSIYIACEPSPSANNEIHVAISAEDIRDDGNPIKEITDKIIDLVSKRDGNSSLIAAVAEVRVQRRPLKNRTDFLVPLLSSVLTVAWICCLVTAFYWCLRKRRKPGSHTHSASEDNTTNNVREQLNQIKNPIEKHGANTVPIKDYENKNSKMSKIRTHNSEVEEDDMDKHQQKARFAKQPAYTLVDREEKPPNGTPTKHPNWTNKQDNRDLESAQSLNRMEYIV
T1 sequence (Q9Y219 24-1238): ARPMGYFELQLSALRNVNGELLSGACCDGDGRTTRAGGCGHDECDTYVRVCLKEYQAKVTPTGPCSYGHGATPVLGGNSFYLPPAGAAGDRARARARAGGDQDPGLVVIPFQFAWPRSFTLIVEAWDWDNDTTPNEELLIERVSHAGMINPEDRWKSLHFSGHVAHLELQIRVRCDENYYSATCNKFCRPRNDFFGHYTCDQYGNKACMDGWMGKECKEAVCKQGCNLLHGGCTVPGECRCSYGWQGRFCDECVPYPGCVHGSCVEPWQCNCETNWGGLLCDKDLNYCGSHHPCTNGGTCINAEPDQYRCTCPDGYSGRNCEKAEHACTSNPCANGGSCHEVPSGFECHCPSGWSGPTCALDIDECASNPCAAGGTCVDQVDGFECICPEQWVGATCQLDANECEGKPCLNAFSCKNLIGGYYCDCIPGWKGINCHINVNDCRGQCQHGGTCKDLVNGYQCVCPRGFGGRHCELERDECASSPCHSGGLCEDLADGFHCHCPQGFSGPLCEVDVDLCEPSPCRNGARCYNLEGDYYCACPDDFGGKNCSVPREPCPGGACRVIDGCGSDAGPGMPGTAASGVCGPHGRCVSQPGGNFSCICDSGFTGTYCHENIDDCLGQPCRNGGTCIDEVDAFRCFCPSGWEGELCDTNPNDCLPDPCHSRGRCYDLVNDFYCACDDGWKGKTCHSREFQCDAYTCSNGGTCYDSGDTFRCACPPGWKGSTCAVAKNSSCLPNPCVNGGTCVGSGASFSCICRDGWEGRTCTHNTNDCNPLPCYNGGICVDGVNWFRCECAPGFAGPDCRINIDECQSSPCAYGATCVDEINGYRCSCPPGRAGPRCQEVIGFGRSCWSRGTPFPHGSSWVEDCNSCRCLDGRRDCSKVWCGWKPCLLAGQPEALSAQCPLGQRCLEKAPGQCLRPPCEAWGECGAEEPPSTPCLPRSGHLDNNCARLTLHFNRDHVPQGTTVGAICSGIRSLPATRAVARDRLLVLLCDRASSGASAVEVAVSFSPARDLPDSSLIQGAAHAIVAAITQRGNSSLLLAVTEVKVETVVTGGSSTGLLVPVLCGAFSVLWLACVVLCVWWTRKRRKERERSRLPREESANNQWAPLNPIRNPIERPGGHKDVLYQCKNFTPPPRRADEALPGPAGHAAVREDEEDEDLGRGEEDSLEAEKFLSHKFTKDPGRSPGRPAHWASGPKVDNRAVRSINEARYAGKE
T2 sequence (Q9QXX0 34-1218, one chain of several): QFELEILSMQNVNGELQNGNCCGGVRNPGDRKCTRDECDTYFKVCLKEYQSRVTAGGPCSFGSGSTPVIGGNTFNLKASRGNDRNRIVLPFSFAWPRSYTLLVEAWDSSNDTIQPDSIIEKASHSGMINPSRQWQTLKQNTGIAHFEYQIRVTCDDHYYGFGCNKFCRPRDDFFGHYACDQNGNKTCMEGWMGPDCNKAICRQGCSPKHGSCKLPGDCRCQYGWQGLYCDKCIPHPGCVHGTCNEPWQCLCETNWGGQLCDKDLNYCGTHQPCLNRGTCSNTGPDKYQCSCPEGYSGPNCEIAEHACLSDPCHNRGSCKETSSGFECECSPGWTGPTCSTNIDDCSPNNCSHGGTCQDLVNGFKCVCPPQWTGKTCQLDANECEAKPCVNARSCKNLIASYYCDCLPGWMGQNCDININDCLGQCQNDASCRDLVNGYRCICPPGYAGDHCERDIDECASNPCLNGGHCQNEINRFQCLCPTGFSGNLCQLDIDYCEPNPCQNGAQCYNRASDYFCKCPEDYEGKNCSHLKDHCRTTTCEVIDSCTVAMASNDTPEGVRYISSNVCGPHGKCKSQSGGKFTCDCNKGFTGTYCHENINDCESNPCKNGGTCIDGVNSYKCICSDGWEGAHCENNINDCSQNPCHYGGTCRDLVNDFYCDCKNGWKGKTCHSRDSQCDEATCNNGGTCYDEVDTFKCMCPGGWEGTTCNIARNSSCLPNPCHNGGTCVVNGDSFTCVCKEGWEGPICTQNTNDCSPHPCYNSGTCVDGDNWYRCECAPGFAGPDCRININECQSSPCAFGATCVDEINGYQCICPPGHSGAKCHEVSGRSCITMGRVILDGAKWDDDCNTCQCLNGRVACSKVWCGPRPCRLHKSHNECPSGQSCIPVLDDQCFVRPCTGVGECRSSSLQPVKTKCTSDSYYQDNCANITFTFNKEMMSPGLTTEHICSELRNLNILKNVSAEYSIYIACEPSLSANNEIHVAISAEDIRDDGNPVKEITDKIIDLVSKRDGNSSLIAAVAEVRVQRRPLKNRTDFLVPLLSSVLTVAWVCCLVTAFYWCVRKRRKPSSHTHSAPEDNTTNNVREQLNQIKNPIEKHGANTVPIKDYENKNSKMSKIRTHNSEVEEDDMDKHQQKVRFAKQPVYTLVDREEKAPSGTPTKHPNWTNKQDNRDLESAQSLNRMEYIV

B1: J1-65D variant 5 (antibody, human IgG1, V domains shown)
VH: QVQLVQSGAELKKPGSSVKVSCKASGYTFTDYEMHWVRQAPGQGLEWMGAIQPGGGGTAYNQKFKGRVTLTADKSTSTAYMELSSLRSEDTAVYYCTRRGYDDYPFAYWGQGTLVTVSS
VL: DIQMTQSPSSLSASVGDRVTITCRASGNIHNYLAWYQQKPGKAPKLLIYNAKTLADAVPSRFSGSGSGTDYTLTISSLQPEDFATYYCQHFWSAPWTFGGGTKLEIKR
notes: human IgG1; also called J1-65DV5; V5
What is called Kd is the equilibrium constant for the complex coming apart. For B1, the binding result in [1] and in test [2] was “no binding (tested: 10 ug/ml)” throughout. The Kd in [3] turned out to be 0.0446 nM.

B2: J1-65D variant 11 (antibody, human IgG1, V domains shown)
VH: QVQLVQSGAEVKKPGSSVKVSCKASGYTFTDYEMHWVRQAPGQGLEWMGAIQPGGGGTAYAQKFQGRVTLTADKSTSTAYMELSSLRSEDTAVYYCTRRGYDDYPFAYWGQGTLVTVSS
VL: DIQMTQSPSSLSASVGDRVTITCRASGNIHNYLAWYQQKPGKAPKLLIYNAKTLADAVPSRFSGSGSGTDYTLTISSLQPEDFATYYCQHFWSAPWTFGQGTKLEIKR
notes: human IgG1; also called J1-65DV11; V11
Regarding B2, the binding result in [1] and in test [2] was “no binding (tested: 10 ug/ml)” each time. For the same molecule, the Kd in test [3] worked out at 0.243 nM.

B3: J1-65D variant 12 (antibody, human IgG1, V domains shown)
VH: QVQLVQSGAEVKKPGSSVKVSCKASGYTFTDYEMHWVRQAPGQGLEWMGAIQPGGGGTAYAQKFQGRVTITADKSTSTAYMELSSLRSEDTAVYYCTRRGYDDYPFAYWGQGTLVTVSS
VL: DIQMTQSPSSLSASVGDRVTITCRASGNIHNYLAWYQQKPGKAPKLLIYNAKTLADAVPSRFSGSGSGTDYTLTISSLQPEDFATYYCQHFWSAPWTFGQGTKLEIKR
notes: human IgG1; also called J1-65DV12; V12
Take B3: the binding result in test [1] and in test [2] was “no binding (tested: 10 ug/ml)” each time. Further, the Kd in test [3] amounted to 0.0806 nM.

B4: J1-65D variant 7 (antibody, human IgG1, V domains shown)
VH: QVQLVQSGAEVKKPGSSVKVSCKASGYTFTDYEMHWVRQAPGQGLEWMGAIQPGGGGTAYAQKFQGRVTLTADKSTSTAYMELSSLRSEDTAVYYCTRRGYDDYPFAYWGQGTLVTVSS
VL: DIQMTQSPSSLSASVGDRVTITCRASGNIHNYLAWYQQKPGKAPKLLIYNAKTLADAVPSRFSGSGSGTDYTLTISSLQPEDFATYYCQHFWSAPWTFGGGTKLEIKR
notes: human IgG1; also called J1-65DV7; V7
As to B4, the binding result in test [1] and in [2] was “no binding (tested: 10 ug/ml)” each time. In test [3], the Kd was found to be 0.151 nM.

B5: J1-65D variant 10 (antibody, human IgG1, V domains shown)
VH: QVQLVQSGAELKKPGSSVKVSCKASGYTFTDYEMHWVRQAPGQGLEWMGAIQPGGGGTAYAQKFKGRVTLTADKSTSTAYMELSSLRSEDTAVYYCTRRGYDDYPFAYWGQGTLVTVSS
VL: DIQMTQSPSSLSASVGDRVTITCRASGNIHNYLAWYQQKPGKAPKLLIYNAKTLADAVPSRFSGSGSGTDYTLTISSLQPEDFATYYCQHFWSAPWTFGQGTKLEIKR
notes: human IgG1; also called J1-65DV10; V10
B5: the binding result in test [1] and in test [2] was “no binding (tested: 10 ug/ml)” in each case. In [3], the equilibrium dissociation constant (Kd) was 0.293 nM.

B6: J1-65D variant 9 (antibody, human IgG1, V domains shown)
VH: QVQLVQSGAELKKPGSSVKVSCKASGYTFTDYEMHWVRQAPGQGLEWMGAIQPGGGGTAYNQKFKGRVTLTADKSTSTAYMELSSLRSEDTAVYYCTRRGYDDYPFAYWGQGTLVTVSS
VL: DIQMTQSPSSLSASVGDRVTITCRASGNIHNYLAWYQQKPGKAPKLLIYNAKTLADAVPSRFSGSGSGTDYTLTISSLQPEDFATYYCQHFWSAPWTFGQGTKLEIKR
notes: human IgG1; also called J1-65DV9; V9
For the molecule B6, the binding result in test [1] and in test [2] was “no binding (tested: 10 ug/ml)” in each case. Moreover, the Kd in [3] was determined as 0.0139 nM.

B7: J1-65D variant 8 (antibody, human IgG1, V domains shown)
VH: QVQLVQSGAEVKKPGSSVKVSCKASGYTFTDYEMHWVRQAPGQGLEWMGAIQPGGGGTAYAQKFQGRVTITADKSTSTAYMELSSLRSEDTAVYYCTRRGYDDYPFAYWGQGTLVTVSS
VL: DIQMTQSPSSLSASVGDRVTITCRASGNIHNYLAWYQQKPGKAPKLLIYNAKTLADAVPSRFSGSGSGTDYTLTISSLQPEDFATYYCQHFWSAPWTFGGGTKLEIKR
notes: human IgG1; also called J1-65DV8; V8
As for B7, the binding result in [1] and in [2] was “no binding (tested: 10 ug/ml)” in each case. Besides, the dissociation constant (Kd) in test [3] turned out to be 0.0717 nM.

B8: J1-183D (antibody, V domains shown)
VH: QVQLQQPGTELVRPGVSVKISCKVSGYAFTDYAIHWIMQSHAKSLEWIGIINTYYGDSKYNQKFKDKATMTVDKSSNTAYMELARLTSEDSAIYYCARGYDGFAYWGQGTLVTVSS
VL: DIQLTQSPASLSASVGETVTFTCRTSENIYSYLTWYQQKQGKSPQLLVYNAKILAAGVPSRFSGYGSGTQFSLKINSLQPEDFGTYYCQHHYDIPWTFGGGTKLEIK
Consider B8, for which the equilibrium dissociation constant (Kd) was determined as 5.2 nM in [4], 4.4 nM in test [5], 4.9 nM in test [6] and 0.58 nM in test [3].

B9: J1-65D (antibody, V domains shown)
VH: QVQLQQPGAELVRPGASVKLSCKALGYTFTDYEMHWVKETPVHGLEWIGAIQPGGGGTAYNQKFKGKATLTADKSSSTAYMELSSLTSEDSAVYYCTRRGYDDYPFAYWGQGTLVTVSS
VL: DIQLTQSPASLSASVGETVTITCRASGNIHNYLAWYQQKQGKSPQLLVYNAKTLADDIPSRFSGSGSGTQYSLKINSLQPEDFGSYYCQHFWSAPWTFGGGTKLEIK
Turning to B9, the Kd in [4] came to 3.3 nM; in test [5], 3 nM; in [6], 9.7 nM; in test [3], 0.13 nM. Further, the figures for the “IC50 (read off the curve)” value in test [7], in [8] and in test [9] were approximately 0.6 µg/mL, approximately 0.5 µg/mL and approximately 1 µg/mL, respectively.
